Data as given in patent US20210277138A1 (BLACK BELT THERAPEUTICS, published 2021).

T1: human CD38 expressed on cells (Daudi cells, human PBMC / T cells) (human, UniProt P28907 1-300)
T1 sequence: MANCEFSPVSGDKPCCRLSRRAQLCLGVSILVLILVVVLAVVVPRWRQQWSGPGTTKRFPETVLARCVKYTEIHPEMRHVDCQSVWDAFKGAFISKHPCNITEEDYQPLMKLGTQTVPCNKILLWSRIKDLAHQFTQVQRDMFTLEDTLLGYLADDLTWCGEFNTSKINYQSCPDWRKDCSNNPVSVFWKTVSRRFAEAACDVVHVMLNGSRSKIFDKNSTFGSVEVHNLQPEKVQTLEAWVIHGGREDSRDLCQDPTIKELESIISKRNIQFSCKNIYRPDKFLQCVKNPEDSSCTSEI


Legend:
[1] = target: T1, human CD38 expressed on cells (Daudi …); test: cell-based or functional assay
[2] = target: T1, human CD38 expressed on cells (Daudi …); test: flow cytometry on human PBMC, gated on CD4-positive cells, fluorescent secondary antibody [lower panel (gated on CD4-positive cells]
Protocol: (§1) Binding of anti-CD38 Antibodies to CD38-expressing cells: The candidate hits are evaluated by analysing the binding to human PBMC. […] Cells were then washed and labelled with an AF488 secondary antibody. Cells were then incubated with additional surface staining antibodies: anti-CD3 PE-Cy7, anti-CD4 APC and anti-CD8 BV451. Sample acquisition was performed using 8-colour (three laser) BD FACSCanto II cytometer, running on the BD FACSDiva software (BD Biosciences). Post-analysis processing and was conducted using FCS Express (v3.0) software (DeNovo software). The relative proportions (%) of the different cell populations and Median Fluorescence Intensity (MFI) data were reported to 2 decimal places.

[3] = target: T1, human CD38 expressed on cells (Daudi …); test: cell-based or functional assay; remark: listed apart in the source
[4] = target: T1, human CD38 expressed on cells (Daudi …); test: flow cytometry on human PBMC, gated on CD8-positive cells, fluorescent secondary antibody [upper panel (gated on CD8-positive cells]
Protocol: as §1

Row | ADCC EC50 ug/ml, target Daudi cells, experiment 1 [1] | ADCC EC50 ug/ml, target Daudi cells, experiment 2 [1] | EC50 (read off the curve) [2] | ADCC target lysis EC50 [3] | ADCC target lysis Max. % lysis [3] | EC50 (read off the curve) [4] | Binder
1 | 0.011 µg/mL | 0.0062 µg/mL | ~0.07 nM | 6.2 ng/mL | 49% | ~0.07 nM | aCD38-b-329 (antibody, human IgG1, V domains shown) VH: QLQLQESGPGLVKPSETLSLTCTVSGGSISSSDYYWGWIRQPPGKGLEWIGSIYYSGSTYYNPSLKSRVTISVDTSKNQFSLKLSSVTAADTAVYYCARGQYSSGWYAYPFDMWGQGTMVTVSS VL: EIVLTQSPGTLSLSPGERATLSCRASQSVRSSYLAWYQQKPGQAPRLLIYGASSRATGIPDRFSGSGSGTDFTLTISRLEPEDFAVYYCQQDGAVFTFGGGTKVEIK
2 | – | – | – | 3.5 ng/mL | 43% | – | aCD38-b-329-m7 (antibody, IgG1, V domains shown) VH: QLQLQESGPGLVKPSETLSLTCTVSGGSISSSDYYWGWIRQPPGKGLEWIGSIYYSGSTYYNPSLKSRVTISVDTSKNQFSLKLSSVTAADTAVYYCARGQYSSGWYAYPFDMWGQGTMVTVSS VL: EIVLTQSPGTLSLSPGERATLSCRASQSVRSSYLAWYQQKPGQAPRLLIYGASSRATGIPDRFSGSGSGTDFTLTISRLEPEDFAVYYCQQDSAVFTFGGGTKVEIK
3 | – | – | – | 2.4 ng/mL | 47% | – | aCD38-b-329-m6 (antibody, IgG1, V domains shown) VH: QLQLQESGPGLVKPSETLSLTCTVSGGSISSSDYYWGWIRQPPGKGLEWIGSIYYSGSTYYNPSLKSRVTISVDTSKNQFSLKLSSVTAADTAVYYCARGQYSSGWYAYPFDMWGQGTMVTVSS VL: EIVLTQSPGTLSLSPGERATLSCRASQSVRSSYLAWYQQKPGQAPRLLIYGASSRATGIPDRFSGSGSGTDFTLTISRLEPEDFAVYYCQQDEAVFTFGGGTKVEIK
